# Results taken from the DeepSol protein solubility set.
# Assay: soluble on expression in E. coli; label from the status in PepcDB or PDB records
row,Sequence,soluble on expression in E. coli
1,MQAEKLAYYPFTSEASAYVGNLGISLESLLNSRAYRAARARGIERVKEALEGEIKKSPVSGEAQVLSELLSYPFARMLVACVDDQLFTRRYALAEAKAAYTFLRNENPDFLLEFGDDFGISADSQDSYFSMHFTDYIRFSNSLKDPSWKLTNRQLRAGKIKITKEEFSRLLEEAVRERIEQSFPVPEIPPEVSSFCSPYAAEIKDKFEVQKKKFGSTDFGAVKPELFPPCIAYALANVQGGVNLAHSMRFAMTSFLLNVGMSVDEILNLFNISPDFNAEKTLYQIEHIAGATGNTYKPPACDTMRTYGNCVGKDRLCEKISHPLGYYEKKVFIKNKEGEEAQGKEQGKEKDDGKEKENGKESEVKKKKEKLEHHHHHH,soluble
2,MGNCWFKGNPYFNRVSSNATKSESPKMQSPSERKEKDDSMLPSNAKEVEELRRESARNPLIAFTFEELKRITKNFRQDSLLGGGGFGRVYKGYITSDLREGLTIEEPLRVAVKVHDGDNSFQGHREWLAEVIFLGQLSHPNLVKLIGYCCEDDHRVLVYEFMPLGSVESHLFSRVMVPLPWFTRMKIALGAAKGLAFLHEAEKPVIYRDFKTSNILLDEEYNAKLSDFGLAKDGPVGDKSHVSTRIMGTYGYAAPEYIMTGHLTAMSDVYSYGVVLLELLTGRKSLDKSRPVREQTLADWAFPMLIQKKKVLGIVDPRLAEDYPVKAVQKTAMLAYHCLNRNPKARPLMRDIVATLEPLQQMEEDPSISLVSGTEV,soluble
3,MASFKVKPEHTGPPDLYYNETEAAKYASNSHITAIQHEMAERALELLALPEGKSGFLLDIGCGTGMSSEVILDAGHMFVGVDVSRPMLEIARQDEDLESGDFIHQDMGLGMPFRPGSFDGAISISAIQWLCHANASDENPRKRLLFFFQSLYGCLGRGSRAVFQFYPENDEQCDLIMGQAHKAGFNGGLVVDFPEAAKRKKVYLVLMTGGVVQLPQALTEDGEESRTQIDNAGRRFVWNSRKNEKVAKGSKAWIEAKRQRQIKQGRDVRHESKYSGRKRKTKF,not soluble
4,MSLILCCGEALIDMLPRQTTLGEAGFAPYAGGAVFNTAIALGRLGVPSAFFTGLSDDMMGDILRETLRASKVDFSYCATLSRPTTIAFVKLVDGHATYAFYDENTAGRMITEAELPALGADCEALHFGAISLIPEPCGSTYEALMTREHETRVISLDPNIRPGFIQNKQSHMARIRRMAAMSDIVKFSDEDLAWFGLEGDEDTLARHWLHHGAKLVVVTRGAKGAVGYSANLKVEVASERVEVVDTVGAGDTFDAGILASLKMQGLLTKAQVASLSEEQIRKALALGAKAAAVTVSRAGANPPFAHEIGLEGHHHHHH,soluble
5,MGSDKIHHHHHHNEDNLKIKTIKGDSNELDHININFGYALNGYINSYYTINGSNKTKKTELIKLQKDSKNTNNLIDVSSGSDLIAHVGFEMNEESKDINFVIDEKKEDLEKGVFPSEGSDKEIEYEKLDMNNFTRTRYKVDKSTDDYYAKILASKRYKKYLYVSVLYATSDSSENNKEYSSTIDIIKINPENKKIKTIKSINLSNYFSEKYQNIENIGVSYASKYEDKMYILVNVLNTNIGDNSNSKFHLLEYNLEENKESIMELKTDSKMALAKAKLEANKLYMVMSNDYDNSSITELNLLTYNILDKSLDEDKYVLDNREKRGIRSIEIDSNKIVAYTSRLNSILSWDDKFMLYIINKNSKEIVYEGELQFNSSNSMLEFEIK,not soluble
6,MSLKRTEISSLGEFGLIRHLTDCVRLKNPGTLKGIGDDAAVISFDEGMKALVTTDMLLEGIHFDLTYTPLKHLGYKSAIVNFSDIYAMNGTPRQLTVSIGVSARFSVEDIEQIYQGILTACDAYGVDLVGGDTSASLTGLCLSLTCIGEAREEEIVYRSGAKPTDLICVSGDLGAAYMGLQLLEREKAVYQGEKDFAPDFAGHEYILERQLKPEARKDIVEELRSAGIKPTAMMDISDGLSSELLHIAHAGKVGVRIYDDKLPIDYQTAAMAEEFNMNLSTAALNGGEDYELLFTVPLTRLDDIQRIEGIHLIGHITEEADGHLLVARDGTEITLVAQGWNAAKALNGEGHHHHHH,soluble
7,MAGQEFEKLLFYIVTVPFFVRAEPTTGELINPQAGAPFFLATAATTMDYEVEMVITSEAGYLLMRDNAKKVKVRPGVEQTVYDFIKMAKDAGVKIYLCTPSLDLTDIYKEEDVNKEICDGILGGAAFLDKLMSGEYAVITL,not soluble
8,MGSDKIHHHHHHMNIQKVTFRNADMAWDMAALILLPEGFDESKRYPTMVSVHPFGSCKEQTSSAVYGKALAELGYVVIAFDASFQGESGGSPRYVEDPSQRVEDISRVIDYAVSLPYVDEDRIGGLGICGGGAYIFSSALTEKRLKAVVGITPVNLGRLFREGFSQYNPIGALEAMATQRTAEARGAELQVNELLPPSPEFAKQNGMTERDLFEATDYYKTPRGQAEGGATRMLFSHAQKTLSWDAFAFVETLMTQPMMAVVGQKLGAFGAYRDGHEVYGRSIVSKDRQLVELQDWSHYDLYDHPQAVSLAMEKIGPFLSQHL,not soluble
9,MAHHHHHHMNRWRPFSKVRHFSGLTKLTNVREHQDEIISCIEKVKVVNPLVHCITNRVTTEKVANSLLAFGSSPAMIDNPKEVEQFAEIASCTYFNLGLHTSQVENIHVLDKMRQEKKKEEFILVIDPIAVGATQYRTNLIKDILVKCKPNVIKGNVAEIFYLDKGEFFGKGVDSNSSSSHTPNDIIASARNVALKYNCAVVVTSKADIIVSPCSKFVAQINCDLKILTKITGSGCSVGALCAAATSVIPQNPFIACTAATLIYKLAAFKAYQKETGPGTLSHQIIDNIYFYSNHPHFMNLQLVDVYAVS,soluble
10,MGLCVSVNRNEYVSSSTTAKIVTINGDLREYDVPVLASQVLESESTSSSSSSSSSSYFLCNSDSLYYDDFIPAIESDEILQANQIYFVLPISKRQYRLSASDMAALAVKASVAIEKAAGKKNRRRRSGRISPVVTLNQANDNRIAAVNNRIGGEATNMMMQKGKLPNRTTPFKDTNGYSRSGSVRKLKRYTSGRAKLAVRSFRLRLSTIYEGSSFN,not soluble
11,MQYIKIHALDNVAVALADLAEGTEVSVDNQTVTLRQDVARGHKFALTDIAKGANVIKYGLPIGYALADIAAGEHVHAHNTRTNLSDLDQYRYQPDFQDLPAQAADREVQIYRRANGDVGVRNELWILPTVGCVNGIARQIQNRFLKETNNAEGTDGVFLFSHTYGCSQLGDDHINTRTMLQNMVRHPNAGAVLVIGLGCENNQVAAFRETLGDIDPERVHFMICQQQDDEIEAGIAHLHQLYSVMRNDKREPGKLSELKFGLECGGSDGLSGITANPMLGRFSDYVIANGGTTVLTEVPEMFGAEQLLMDHCRDEATFEKLVTMVNDFKQYFIAHDQPIYENPSPGNKAGGITTLEDKSLGCTQKAGSSVVVDVLRYGERLKTPGLNLLSAPGNDAVATSALAGAGCHMVLFSTGRGTPYGGFVPTVKIATNSELAAKKKHWIDFDAGQLIHGKAMPQLLEEFIDTIVEFANGKQTCNERNDFRELAIFKSGVTL,not soluble
12,MGHHHHHHEFMLKNDDFVIAKNQLGNIVPNSVGVIRAVNGKSAMVLFIGLNELKRVDFSELEAIDIYRTGKGYDKKICNICHILKNTDGFEINQTDAKGRKTTRPSCRECRKNIDGVKLSSTEKKKMDEIAPPKGSVFTCPICEKRSIVGVTANLVHDHNHDTGWGREWICDSCNTGLGRFKDNPKFLEKVIEYLKKYEK,soluble
13,KAEMRHMENKVLESELRQRAVVEASLLETQGRLLEQLESAPEAIICLREDQRIRFANEAACKLFKRSLEQLKRS,not soluble
14,MGSDKIHHHHHHMVFFMLIIDVNHGALTLAEEYLNLGYEVDVWDIYQKIKKSEDFKVKYQKLKEKFGNKLNLFFEQPNFEKYDRVIAPIHCPIDVDFIPFTDAVSKILKEKFGNIHKKIINVTGVKGKTTTTSLINHILKDKYSTYLHNSNFGSIAPPTILKVLNSLDIDKYDFFIFETSLGLIKCKYGAITNVLENYKIAGGRKDALTAKFSSLKNAELSFINKRDINRYDLNINHKCLNVVDVDRAKILDKYPLKFKYFDEIFEFSKNIFGLHFVENSLFAIEICKNLVDMEEIRYRLKTFTIKNRMEIKEINKKILVKNINPGLDVKAISYAIKDFLEVFGGDIYIGGDFGIVCEEIDVKKLSEVLKRFNCRYIFVGEIGKELLNYLNGGYIKSYDENKIKRDSLVILREKIK,not soluble
15,MGSDKIHHHHHHMSDAKLQSVLSSLSQVARQLDALPSDTPAPDSSWVKLNTNENPFPLPEIIMQSAIAALERQYLYPEDDNISLREAAANAYSVSMDQVIAGNGSSELLGLVYRAFLTPGDSVAMMSPGFSFNRKLATLQGAQFVEIEFSKDHSLPMEQLLFGPAKDAKFILLANPNNPTGTFVPVADIERLVAKSDRLIVLDEAYVDFAPENGLRLINRYSNLLVLRTFSKSYAAAGVRVGFGFGHPEIIGRLRNIQNVFNMNVIGQAVGISVLAHRAAYADNHRHIRHERRRVTLALSQLGFSVIPSHANFLLARVPTAQDGSWWQSAFARQKILVAVFPDKGLENYIRVSIGTKEQMDAFLRAASRISRILNMSTPPR,not soluble
16,GMYLKELSMMPGVSGDEGKVRDFIKSKIEGLVDNLYTDVLGNLIALKRGRDSSKKLLVSAHMDEVGFVVSKIEKDGKVSFLPVGGVDPRILPGKVVQVKNLKGVIGYRPIHLQRDEENTPPRFENLRIDFGFSSADEAKKYVSIGDYVSFVSDYIEKNGRAVGKAFDDRAGCSVLIDVLESGVSPAYDTYFVFTVQEETGLRGSAVVVEQLKPTCAIVVETTTAGDNPELEERKWATHLGDGPAITFYHRGYVIPKEIFQTIVDTAKNNDIPFQMKRRTAGGTDAGRYARTAYGVPAGVISTPARYIHSPNSIIDLNDYENTKKLIKVLVEEGKIVEVVS,soluble
17,MPEDLALESNPSDHPRASTIFLSKSQTDVREKRKSNHLNHCDLSNILPHKEQREKVPEEYFKHDPEHKFIYRFVRTLFSAAQLTAECAIVTLVYLERLLTYAEIDICPTNWKRIVLGAILLASKVWDDQAVWNVDYCQILKDITVEDMNEMERHFLELLQFNINVPASVYAKYYFDLRSLADDNNLNFLFAPLSKERAQNLEAISRLCEDKDLCRAAMRRSFSADNFIGIQRSKAILS,not soluble
18,MTVRDKREKMTATREEFADAQQEFAAYAADFAADIETKRDVSSLLDAIDALRAEIEETGDAFDAYNQEFAAEVSHLQTEIGEQREALREMRDIFDAYAETFESDVEAKQDVSDLLAAIEDLRAEMDTTHEAFDAYTNEFVTDVAALRDVSDLLAAIEELQLEFGAVQAEFDDYTDDFDADIERFRNAVAEQRDAVAEYREEFHGVEVQAMLNAIADFQQEIDDFRAEFETTEESFDAFARDFYGAEASDSGDALETEAEAPDAGVPEQPAEESVETENEEAELEVVETETDTEDTDTGSIKEVEEELIIEEEIDTEDTREAENAVEEDEETEADEDAPEGMIQCLVCGEYYQAITEPHLQTHDMTIQEYREEYGEDMPLRPDDKA,not soluble
19,DIPFYEQVKASAGHGFLCECKNVTYISLPKALFKYFNVKDLLAITAHGDSMEPVLNDDALLVIDSSKKQIRDGSMYVIRQGDLIRVKLISLDNNGLKLKSYNQSYHDEIYEDYQDVEILGKVIWYSSLCL,not soluble
20,VLGDKEWVYLPGLKESFKARIDTGATTSSISAVDIVPFERGGQDWVKFRIEHDNIRSEELSLPVERWVRIRQSSAEEAQRRAVVVAWIQIGDLKEQTEFTLTDRTHLTYPLLLGRSFFKDVAVVDVSRHYIQPKHPSPKK,not soluble
21,MSFFEQYRTGNLVLPNALFFHFKDIFPSADDFLVWQFLYLQTTTQIGEVASSQIAQATGKTPTEVNKSITTLTEAGLLDFTTVKVNNEIKMVVDASPALAVLDKLVSSENSTTGPVAGQPTNTQLIKQLTDELEQALGILNPMVIEDLNKEIQEEHTDPELIREALKEAVFNRKTNWNYIKGVLRNWKLSGITTKIQVEERRLEHQGKKQHHQVSDEFKTGMDAARQLWGGQ,not soluble
